Assay results as given in patent US20110070185A1 (Janssen / Centocor, published 2011).

Columns and labels:
[1] = molecular target: T1, HLA-A2 molecules in T2 cells (human); assay: HLA-A2 stabilization assay on T2 cells
T1 construct: whole, on cells; Target of the HLA-A2 Stabilization Assay; also called MHC class I, HLA-A2; MHC/HLA-A2

[2] = molecular target: T1, HLA-A2 molecules in T2 cells; assay: HLA-A2 stabilization assay on T2 cells, flow cytometry with FITC anti-HLA-A2
[3] = molecular target: T1, HLA-A2 molecules in T2 cells; assay: HLA-A2 stabilization assay on T2 cells; remark: listed apart in the source

B1: P13-11 (peptide)
peptide: LVDLPGMT
notes: synthetic truncated peptide
- binding result [1]: no binding

B2: P14-7 (peptide)
peptide: TLIDLPGIT
notes: synthetic truncated peptide
- binding result [1]: no binding

B3: P14-3 (peptide)
peptide: DLPGITRV
notes: synthetic truncated peptide
- binding result [1]: no binding

B4: P13-5 (peptide)
peptide: PGMTKV
notes: synthetic truncated peptide; also called PGMTKV
- binding result [1]: no binding

B5: P13-8 (peptide)
peptide: TLVDLPGM
notes: synthetic truncated peptide
- binding result [1]: no binding

B6: P14-6 (peptide)
peptide: TLIDLPGITR
notes: synthetic truncated peptide
- binding result [1]: no binding

B7: P3-5 (peptide)
peptide: SLVLNLL
notes: synthetic truncated peptide; also called SLVLNLL
- binding result [1]: no binding

B8: P24 (peptide)
peptide: LKIHAREIFD
notes: synthetic peptide; also called peptide 24
- binding result [2]: no binding (tested: up to 200 uM)

B9: P14-2 (peptide)
peptide: IDLPGITRV
notes: synthetic truncated peptide
- binding result [1]: no binding

B10: P13-12 (peptide)
peptide: VDLPGMTK
notes: synthetic truncated peptide
- binding result [1]: no binding

B11: P3-6 (peptide)
peptide: SLVLNL
notes: synthetic truncated peptide; also called SLVLNL
- binding result [1]: no binding

B12: P19 (peptide)
peptide: NLKAALENLGAL
notes: synthetic peptide; also called peptide 19; NLKAALENLGAL
- binding result [2]: no binding (tested: up to 200 uM)

B13: P3-4 (peptide)
peptide: SLVLNLLE
notes: synthetic truncated peptide
- binding result [1]: no binding

B14: P3-2 (peptide)
peptide: VLNLLEL
notes: synthetic truncated peptide; also called VLNLLEL
- binding result [1]: no binding

B15: P3-8 (peptide)
peptide: LVLNLLE
notes: synthetic truncated peptide; also called LVLNLLE
- binding result [1]: no binding

B16: P13-1 (peptide)
peptide: LVDLPGMTKV
notes: synthetic truncated peptide
- binding result [1]: no binding

B17: P14-18 (peptide)
peptide: FMLQTYGQQL
notes: synthetic computer predicted peptide
- binding result [3]: no binding

B18: P3-3 (peptide)
peptide: LNLLEL
notes: synthetic truncated peptide; also called LNLLEL
- binding result [1]: no binding

B19: P14-1 (peptide)
peptide: LIDLPGITRV
notes: synthetic truncated peptide
- binding result [1]: no binding

B20: P13-2 (peptide)
peptide: VDLPGMTKV
notes: synthetic truncated peptide
- binding result [1]: no binding

B21: P3-1 (peptide)
peptide: LVLNLLEL
notes: synthetic truncated peptide
- binding result [1]: no binding

B22: P13-3 (peptide)
peptide: DLPGMTKV
notes: synthetic truncated peptide
- binding result [1]: no binding

B23: P13-4 (peptide)
peptide: LPGMTKV
notes: synthetic truncated peptide; also called LPGMTKV
- binding result [1]: no binding

B24: P13-10 (peptide)
peptide: TLVDLP
notes: synthetic truncated peptide; also called TLVDLP
- binding result [1]: no binding

B25: P14-10 (peptide)
peptide: TLIDLP
notes: synthetic truncated peptide; also called TLIDLP
- binding result [1]: no binding

B26: P18 (peptide)
peptide: LKNKLKDLGH
notes: synthetic peptide; also called peptide 18
- binding result [2]: no binding (tested: up to 200 uM)

B27: P14-4 (peptide)
peptide: LPGITRV
notes: synthetic truncated peptide; also called LPGITRV
- binding result [1]: no binding

B28: P14-8 (peptide)
peptide: TLIDLPGI
notes: synthetic truncated peptide
- binding result [1]: no binding

B29: P14-11 (peptide)
peptide: TLIDLPGIT
notes: synthetic truncated peptide
- binding result [1]: no binding

B30: P14-5 (peptide)
peptide: PGITRV
notes: synthetic truncated peptide; also called PGITRV
- binding result [1]: no binding

B31: P13-7 (peptide)
peptide: TLVDLPGMT
notes: synthetic truncated peptide
- binding result [1]: no binding

B32: P13-14 (peptide)
peptide: VDLPGMT
notes: synthetic truncated peptide; also called VDLPGMT
- binding result [1]: no binding

B33: P13-6 (peptide)
peptide: TLVDLPGMTK
notes: synthetic truncated peptide
- binding result [1]: no binding

B34: P13-15 (peptide)
peptide: DLPGMTK
notes: synthetic truncated peptide; also called DLPGMTK
- binding result [1]: no binding

B35: P14-17 (peptide)
peptide: DLPGITR
notes: synthetic truncated peptide; also called DLPGITR
- binding result [1]: no binding

B36: P14-13 (peptide)
peptide: LIDLPGIT
notes: synthetic truncated peptide
- binding result [1]: no binding

B37: P2 (peptide)
peptide: LLPGRTVLV
notes: synthetic peptide; also called peptide 2
- binding result [2]: no binding (tested: up to 200 uM)

B38: P14-12 (peptide)
peptide: LIDLPGITR
notes: synthetic truncated peptide
- binding result [1]: no binding

B39: P3-7 (peptide)
peptide: SLVLNLL
notes: as for B7
- binding result [1]: no binding

B40: P4 (peptide)
peptide: RSLFLLYAL
notes: synthetic peptide; also called peptide 4; RSLFLLYAL
- binding result [2]: no binding (tested: up to 200 uM)

B41: P13-9 (peptide)
peptide: TLVDLPG
notes: synthetic truncated peptide; also called TLVDLPG
- binding result [1]: no binding

B42: P14-9 (peptide)
peptide: TLIDLPG
notes: synthetic truncated peptide; also called TLIDLPG
- binding result [1]: no binding
